The text below walks through data of patent US20080081783A1 (published 2008).

Where two headings read alike, the source gives them in different places. Bridge positions count the residues as written; N and C are the ends. Square brackets hold non-standard residues; d marks the D form. Ends that are not written are not given here. 1Nal = N[C@@H](Cc1cccc2ccccc12)C(=O)O; Sar = CNCC(=O)O

For experiment [1], the target named is recombinant EPO-R (produced in Chinese Hamster Ovary cells as a fusion protein to a portion of the human … (human, UniProt P05187 490-506)). As to the kind of experiment: competitive binding; the column head says only 'IC50'; taken as the AlphaQuest bead proximity assay against the biotinylated tracer SEQ ID NO: 4, by paragraph 206.
The target of experiment [2] is T1, human EPO-R (human, UniProt P19235 25-508).
T1 sequence (looked up): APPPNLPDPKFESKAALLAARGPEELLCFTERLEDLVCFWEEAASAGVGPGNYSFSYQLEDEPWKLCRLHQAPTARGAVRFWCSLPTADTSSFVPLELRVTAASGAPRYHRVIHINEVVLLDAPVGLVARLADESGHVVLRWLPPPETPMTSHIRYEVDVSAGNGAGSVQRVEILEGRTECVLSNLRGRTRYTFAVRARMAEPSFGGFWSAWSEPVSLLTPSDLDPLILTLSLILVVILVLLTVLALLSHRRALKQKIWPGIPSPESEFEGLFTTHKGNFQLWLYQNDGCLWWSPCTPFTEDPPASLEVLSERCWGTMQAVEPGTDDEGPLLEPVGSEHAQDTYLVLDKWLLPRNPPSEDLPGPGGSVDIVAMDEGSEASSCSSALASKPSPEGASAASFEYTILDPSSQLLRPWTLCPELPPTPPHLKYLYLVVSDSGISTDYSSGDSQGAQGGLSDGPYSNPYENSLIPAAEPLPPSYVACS
Description: cell-based or functional assay.

For experiment [3], the target named is T2, chimeric receptor comprising the extra-cellular portion of the human EPO receptor to the intra-cellular … (human, UniProt P19235 25-250; Q99062 651-836, limits assumed).
T2 sequence (looked up): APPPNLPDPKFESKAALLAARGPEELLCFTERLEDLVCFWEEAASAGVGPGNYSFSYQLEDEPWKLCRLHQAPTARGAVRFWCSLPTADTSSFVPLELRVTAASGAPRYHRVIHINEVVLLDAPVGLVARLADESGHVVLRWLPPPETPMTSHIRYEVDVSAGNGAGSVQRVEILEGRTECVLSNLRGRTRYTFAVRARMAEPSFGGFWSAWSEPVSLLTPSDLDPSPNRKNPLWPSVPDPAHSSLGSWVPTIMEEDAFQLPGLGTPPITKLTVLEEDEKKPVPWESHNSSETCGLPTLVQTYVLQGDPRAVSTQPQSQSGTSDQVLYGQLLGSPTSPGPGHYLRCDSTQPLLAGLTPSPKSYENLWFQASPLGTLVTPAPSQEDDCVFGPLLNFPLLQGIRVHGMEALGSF
Description: cell-based or functional assay.

Experiment [4] deals with T1, human EPO-R. Description: cell-based or functional assay. This is another data set of the same source.
Experiment [5] has as its target T2, chimeric receptor comprising the …. As to the kind of experiment: cell-based or functional assay. The source holds these as a separate data set.
Experiment [6] concerns the target T3, Recombinant Human EPO R/Fc Chimera (human, UniProt P19235 25-250).
T3 construct: extracellular domain; Bought from R&D Systems, catalog number 963-ER; also called recombinant EPOr extracellular domain fused to the Fc portion of human IgG1; recombinant erythropoietin receptor; not shown: Fc portion of human IgG1
T3 sequence (looked up): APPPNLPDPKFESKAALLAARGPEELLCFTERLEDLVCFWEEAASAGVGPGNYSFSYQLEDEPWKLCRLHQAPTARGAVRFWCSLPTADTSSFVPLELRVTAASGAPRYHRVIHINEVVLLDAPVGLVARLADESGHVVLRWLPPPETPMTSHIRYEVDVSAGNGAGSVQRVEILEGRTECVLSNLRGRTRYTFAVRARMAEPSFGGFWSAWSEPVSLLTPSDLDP
Description: radioligand competition; competitor 125I-EPO; EPO R/Fc chimera captured on protein-G Sepharose. On the technique in general: In a radioligand displacement assay an active substance lowers the binding of a labelled ligand.

B1: Peptide II (SEQ ID NO: 3) (peptide)
peptide: Ac-XGLYACHMGPIT[1Nal]VCQPLR[Sar]
modifications: disulfide 6-15 (inferred); not fully specified (residue 1); printed as (AcG)GLYACHMGPIT(1-nal)VCQPLR(MeG); also: homodimer, C-termini joined to alpha- and epsilon-amino groups of a lysine linker, PEG attached through a spacer, linkage and PEG size not readable
notes: What sets it apart from Peptide III (PEG linkage or size) stands only in drawing CHEM-US-00080
A word on the IC50: it is the point on the concentration scale where inhibition reaches its midpoint. In the case of B1, the IC50 in experiment [1] is 0.11 nM.

B2: Peptide III (SEQ ID NO: 3) (peptide)
peptide: Ac-XGLYACHMGPIT[1Nal]VCQPLR[Sar]
modifications: disulfide 6-15; not fully specified (residue 1); printed as (AcG)GLYACHMGPIT(1-nal)VCQPLR(MeG); also: homodimer, C-termini joined to alpha- and epsilon-amino groups of a lysine linker, PEG attached through a spacer, linkage and PEG size not readable
As to B2, the “Proliferation EC50” value in experiment [2] came to 72 nM. Also, the “Reporter EC50” value in experiment [3] stood at 0.15 nM.

B3: Peptide I (SEQ ID NO: 2) (peptide)
peptide: Ac-XGLYACHMGPIT[1Nal]VCQPLR[Sar]K
modifications: disulfide 6-15; not fully specified (residues 1, 21); printed as (AcG)GLYACHMGPIT(1-nal)VCQPLR(MeG)K; also: homodimer joined by a branched tertiary amide linker on the epsilon-N of Lys21, PEG attached through a spacer, exact linker and PEG structure not readable
notes: The exact structure (linker, spacer, PEG size, carbamate or amide linkage) stands only in drawing CHEM-US-00099, which is not readable here
As for B3, in experiment [4], the “Proliferation EC50” value was 0.165 nM. In addition, the “Reporter EC50” value in experiment [5] stood at 0.195 nM. Besides, the IC50 in experiment [6] was determined as 0.111 nM.
